Here are results for 1 substance from patent US20200055958A1.

The assay has as its target VEGF-A (human) (UniProt P15692). The experiment in a line: cell-based or functional assay.

VEGF-A (human), sequence (P15692 other isoform, or with tags, fused parts or gaps limits assumed): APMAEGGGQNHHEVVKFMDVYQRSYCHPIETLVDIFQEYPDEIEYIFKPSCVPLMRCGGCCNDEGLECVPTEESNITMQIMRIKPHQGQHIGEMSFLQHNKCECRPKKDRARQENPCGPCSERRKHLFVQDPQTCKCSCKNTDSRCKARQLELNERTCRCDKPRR

Substance “positive control, VEGFR1 ECD D2 and VEGFR2 ECD D3 fused C-terminally with IgG1 Fc fragment (Fc fusion)” showed an IC50, VEGF-dependent HUVEC cell growth assay (MTS) of 0.19 nM.
